# Target: HLA-A*24:02
# Experiment: IEDB peptide-MHC binding, purified MHC/direct/fluorescence; filed as Kd, often an IC50 or EC50 that approximates it; ≥ and ≤ were set here for values at or beyond the usual limits of such assays
# Conditions: source organism: Francisella tularensis subsp. tularensis SCHU S4
row,Sequence,Kd [µM]
1,NYVDSAQLAF,0.009
2,TYPNSQQQTL,0.18
3,KYWNNHRQGI,0.435
4,IYNNYDVLF,0.023
5,WYTNLDTDKF,0.255
6,NYNNLDDKF,0.003
7,IYSDKGLLF,0.004
8,PYLKSFLSF,0.02
9,IFWQFHQLL,0.01
10,SYSYLVYLI,0.003
11,SYTFTQTFF,0.024
12,YYLDRGYLDF,0.01
13,TYTSTLHPRL,0.2
14,RYTDSEYFVI,0.015
15,LYSENGHFSW,0.018
16,SYDRWGIPI,0.033
17,PYLKQGIEF,0.008
18,NYQKWTAPL,0.005
19,LYQPLLDLL,0.03
20,AYVKNGYFEI,0.076

# Target: HLA-A*02:01
# Experiment: as above
# Conditions: source organism: Francisella tularensis
row,Sequence,Kd [µM]
1,QLVGRVFAGL,0.002

# Same assay, conditions: source organism: Francisella tularensis subsp. tularensis SCHU S4
row,Sequence,Kd [µM]
1,RLIGHISTL,≤ 0.001
2,KLAKKVLSRV,0.01
3,KLLPEGYWV,≤ 0.001
4,FLSPNQVTNV,≤ 0.001
5,GLNLVVSSSV,0.02
6,FLMPFMHYIV,≤ 0.001
7,KIDSTSFSV,≤ 0.001
8,VLPGVVVPIV,0.015
9,QLWPEEIGV,≤ 0.001
10,GIDGNVTFTV,≤ 0.001
11,KLGGYVSFV,≤ 0.001
12,KLLGQINLV,≤ 0.001
13,WLGETFHGL,≤ 0.001
14,KLWGLVDFV,≤ 0.001
15,FLSNVGHYV,≤ 0.001
16,WLGNHGFEV,≤ 0.001
17,IMSSFEFQV,≤ 0.001
18,LMWDNVGLV,≤ 0.001
19,ILDPKTGLV,0.015
20,ILLPWFVDL,≤ 0.001
21,GTDGFPFKL,0.024
22,NLDTSPFFV,≤ 0.001

# Target: HLA-B*07:02
# Experiment: as above
# Conditions: source organism: Francisella tularensis
row,Sequence,Kd [µM]
1,APFANTYSAL,0.022

# Same assay, conditions: source organism: Francisella tularensis subsp. tularensis SCHU S4
row,Sequence,Kd [µM]
1,FPATGQNIYM,0.588
2,APAFVVIADL,0.114
3,SPQANNLYL,0.074
4,SPMEHSKRI,0.062
5,MPVSRQISRM,0.665
6,APYPNVVEM,0.127
7,VPRKPLLSYI,0.038
8,TPNGNIPTL,0.046
9,FPKAFINIV,0.151
10,IPMTLTASPL,0.004
11,FPICSVFKFL,0.251
12,FPICSTYKFL,0.226
13,LPRYNIATSV,0.003
14,FPINLNSSQL,0.062
15,IPRTMLPLSL,0.003
16,SPMGPLAVSF,0.018

# Target: HLA-B*07:02
# Experiment: IEDB peptide-MHC binding, purified MHC/competitive/fluorescence; filed as Kd, often an IC50 or EC50 that approximates it; ≥ and ≤ were set here for values at or beyond the usual limits of such assays
# Conditions: source organism: Francisella tularensis subsp. tularensis SCHU S4
row,Sequence,Kd [µM]
1,APAWFQASA,≥ 5
2,FPQANLTGGI,2.15
3,FPNINFSPEV,≥ 5

# — the Immune Epitope Database (IEDB)
